Experimental data taken from article PMC2192062.

Biological target: H-2Kb, peptide-free ('empty') MHC class I molecule on RMA-S cells (mouse | mouse (endogenous in RMA-S))
Test: MHC stabilization assay

## SIINFEKL, CTL epitope derived from ovalbumin (peptide)
  SI (stabilization index): 450 to 500
